According to the supplement of paper PMC10065799, “High-throughput profiling of sequence recognition by tyrosine kinases and SH2 domains using bacterial peptide display” (eLife, 2023):

Legend:
[1] = target: FGFR1 (UniProt P11362); assay: phosphorylation enrichment, bacterial display (enrichment ratio); higher = better substrate or ligand; peptides without Tyr show the background
[2] = target: EPHB1 (UniProt P54762); assay: as above
[3] = target: EPHB2 (UniProt P29323); assay: as above
[4] = target: Fes (UniProt P07332); assay: as above
[5] = test system: Fer (mouse); assay: as above
[6] = test system: c-Abl (mouse); assay: as above
[7] = target: Jak2 (UniProt O60674); assay: as above
[8] = test system: c-Src; assay: as above
[9] = target: Hck (UniProt P08631); assay: as above
[10] = target: MERTK (UniProt Q12866); assay: as above
[11] = target: Fyn (UniProt P06241); assay: as above
[12] = target: FGFR3 (UniProt P22607); assay: as above
[13] = test system: AncSZ; assay: as above
[14] = target: Grb2 SH2 (UniProt P62993); assay: SH2 binding enrichment of the phosphorylated peptide, bacterial display (enrichment ratio); higher = better substrate or ligand; peptides without Tyr show the background
[15] = target: SHP2-C SH2; assay: as above
[16] = target: c-Src SH2; assay: as above
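Throughout, for SH2 binding enrichment of the phosphorylated peptide, bacterial display: peptide library displayed on the E. coli surface as eCPX fusions, selected cells deep-sequenced, score is each peptide's frequency after selection divided by its frequency in the input.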
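Throughout, for phosphorylation enrichment, bacterial display: 11-residue human phosphosite peptides and single-mutation variants displayed on the E. coli surface, counted by deep sequencing, each peptide's frequency after selection divided by its frequency in the unselected input library; frequency after pTyr selection over input frequency; kinase dosed for 20-30% of maximal phosphorylation in three min.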

Jak2, sequence (O60674 whole entry, looked up): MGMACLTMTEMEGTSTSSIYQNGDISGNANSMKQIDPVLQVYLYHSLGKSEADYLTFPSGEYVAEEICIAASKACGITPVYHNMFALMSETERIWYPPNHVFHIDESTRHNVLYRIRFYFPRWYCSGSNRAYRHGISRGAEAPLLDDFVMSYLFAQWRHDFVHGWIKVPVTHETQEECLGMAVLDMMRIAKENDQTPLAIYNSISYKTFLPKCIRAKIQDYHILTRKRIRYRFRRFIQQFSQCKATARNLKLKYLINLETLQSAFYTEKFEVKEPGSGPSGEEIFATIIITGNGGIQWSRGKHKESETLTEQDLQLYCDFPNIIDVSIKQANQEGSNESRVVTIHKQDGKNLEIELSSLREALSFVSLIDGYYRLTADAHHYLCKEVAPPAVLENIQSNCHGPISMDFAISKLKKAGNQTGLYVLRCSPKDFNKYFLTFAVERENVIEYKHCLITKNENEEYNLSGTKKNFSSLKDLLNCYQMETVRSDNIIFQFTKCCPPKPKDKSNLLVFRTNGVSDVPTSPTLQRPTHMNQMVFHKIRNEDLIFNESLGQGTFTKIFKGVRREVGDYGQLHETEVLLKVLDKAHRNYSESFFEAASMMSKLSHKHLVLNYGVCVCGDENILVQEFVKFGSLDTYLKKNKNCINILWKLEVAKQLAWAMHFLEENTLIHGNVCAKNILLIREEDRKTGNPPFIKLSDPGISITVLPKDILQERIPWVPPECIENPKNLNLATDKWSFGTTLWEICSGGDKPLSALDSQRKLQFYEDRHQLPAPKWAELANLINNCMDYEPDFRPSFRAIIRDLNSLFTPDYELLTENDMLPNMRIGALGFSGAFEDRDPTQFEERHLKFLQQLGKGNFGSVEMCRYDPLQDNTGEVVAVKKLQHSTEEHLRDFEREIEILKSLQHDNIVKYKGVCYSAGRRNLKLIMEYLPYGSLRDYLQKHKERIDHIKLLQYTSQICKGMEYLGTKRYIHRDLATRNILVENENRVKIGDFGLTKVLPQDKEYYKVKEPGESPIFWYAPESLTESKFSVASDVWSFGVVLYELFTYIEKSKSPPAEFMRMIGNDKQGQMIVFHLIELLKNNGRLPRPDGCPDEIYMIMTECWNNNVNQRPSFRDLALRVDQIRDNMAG
FGFR1, sequence (P11362 whole entry, looked up): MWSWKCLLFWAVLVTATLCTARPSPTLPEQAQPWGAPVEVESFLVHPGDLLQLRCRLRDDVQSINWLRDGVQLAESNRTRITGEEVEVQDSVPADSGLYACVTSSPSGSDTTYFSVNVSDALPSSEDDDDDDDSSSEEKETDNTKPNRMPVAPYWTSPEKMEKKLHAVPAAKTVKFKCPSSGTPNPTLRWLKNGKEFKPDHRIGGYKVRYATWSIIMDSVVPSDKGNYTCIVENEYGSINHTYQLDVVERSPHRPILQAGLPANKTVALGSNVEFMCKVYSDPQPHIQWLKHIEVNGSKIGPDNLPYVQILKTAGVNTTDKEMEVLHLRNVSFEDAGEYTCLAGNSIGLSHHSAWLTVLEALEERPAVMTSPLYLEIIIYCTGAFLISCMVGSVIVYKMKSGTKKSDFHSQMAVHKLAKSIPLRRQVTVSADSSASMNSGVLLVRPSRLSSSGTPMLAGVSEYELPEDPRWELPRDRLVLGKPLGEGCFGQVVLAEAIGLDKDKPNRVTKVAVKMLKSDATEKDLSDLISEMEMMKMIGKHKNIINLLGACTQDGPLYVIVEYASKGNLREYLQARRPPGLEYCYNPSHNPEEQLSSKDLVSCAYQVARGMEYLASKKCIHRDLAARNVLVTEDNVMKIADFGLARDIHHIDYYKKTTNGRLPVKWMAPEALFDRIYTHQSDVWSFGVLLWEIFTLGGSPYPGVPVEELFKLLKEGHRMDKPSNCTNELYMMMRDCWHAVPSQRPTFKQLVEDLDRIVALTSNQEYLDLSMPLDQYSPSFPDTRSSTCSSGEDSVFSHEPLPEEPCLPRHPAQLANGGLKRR
Fes, sequence (P07332 whole entry, looked up): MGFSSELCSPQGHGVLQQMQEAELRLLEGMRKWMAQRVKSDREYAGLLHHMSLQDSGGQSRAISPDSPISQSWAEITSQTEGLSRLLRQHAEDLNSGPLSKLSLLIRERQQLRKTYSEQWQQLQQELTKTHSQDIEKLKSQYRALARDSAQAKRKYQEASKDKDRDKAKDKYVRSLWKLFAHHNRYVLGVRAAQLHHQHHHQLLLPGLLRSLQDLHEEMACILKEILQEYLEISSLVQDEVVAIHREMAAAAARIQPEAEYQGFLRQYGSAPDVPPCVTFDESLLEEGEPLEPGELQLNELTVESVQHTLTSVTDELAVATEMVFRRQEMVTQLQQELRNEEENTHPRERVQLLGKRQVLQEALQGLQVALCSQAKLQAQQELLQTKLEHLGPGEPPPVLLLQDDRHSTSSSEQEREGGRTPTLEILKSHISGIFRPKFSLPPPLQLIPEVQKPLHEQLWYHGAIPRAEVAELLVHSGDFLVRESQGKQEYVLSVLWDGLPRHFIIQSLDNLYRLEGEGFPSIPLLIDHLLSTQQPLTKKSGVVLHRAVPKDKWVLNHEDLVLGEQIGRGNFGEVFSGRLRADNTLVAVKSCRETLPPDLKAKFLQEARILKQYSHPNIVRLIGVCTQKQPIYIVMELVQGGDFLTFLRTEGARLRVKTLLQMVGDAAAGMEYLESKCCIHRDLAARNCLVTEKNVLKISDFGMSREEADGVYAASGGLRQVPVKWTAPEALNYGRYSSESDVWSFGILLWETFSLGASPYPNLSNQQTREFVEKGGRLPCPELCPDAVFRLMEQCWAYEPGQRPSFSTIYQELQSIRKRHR
FGFR3, sequence (P22607 whole entry, looked up): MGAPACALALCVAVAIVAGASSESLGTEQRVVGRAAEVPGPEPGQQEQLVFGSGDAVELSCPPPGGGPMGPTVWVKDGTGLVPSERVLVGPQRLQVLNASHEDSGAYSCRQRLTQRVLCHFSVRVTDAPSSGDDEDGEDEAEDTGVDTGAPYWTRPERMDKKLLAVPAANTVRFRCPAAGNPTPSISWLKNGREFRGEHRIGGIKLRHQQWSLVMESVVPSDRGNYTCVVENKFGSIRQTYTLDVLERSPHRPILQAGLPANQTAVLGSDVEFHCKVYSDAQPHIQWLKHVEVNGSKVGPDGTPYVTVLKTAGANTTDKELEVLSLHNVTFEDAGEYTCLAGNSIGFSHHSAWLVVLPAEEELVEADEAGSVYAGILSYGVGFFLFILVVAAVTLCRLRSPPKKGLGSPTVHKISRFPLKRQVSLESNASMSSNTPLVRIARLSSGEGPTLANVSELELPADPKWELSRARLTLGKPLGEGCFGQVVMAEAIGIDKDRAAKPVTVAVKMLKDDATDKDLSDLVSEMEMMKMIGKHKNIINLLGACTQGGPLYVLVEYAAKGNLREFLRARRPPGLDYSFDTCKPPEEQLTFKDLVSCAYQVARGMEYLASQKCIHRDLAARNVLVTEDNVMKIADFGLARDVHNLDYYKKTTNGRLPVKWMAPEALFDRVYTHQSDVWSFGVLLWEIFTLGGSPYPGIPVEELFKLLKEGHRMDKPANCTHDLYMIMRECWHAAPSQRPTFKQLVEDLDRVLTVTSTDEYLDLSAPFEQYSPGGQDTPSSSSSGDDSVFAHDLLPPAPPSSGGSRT
Grb2 SH2, sequence (P62993 whole entry, looked up): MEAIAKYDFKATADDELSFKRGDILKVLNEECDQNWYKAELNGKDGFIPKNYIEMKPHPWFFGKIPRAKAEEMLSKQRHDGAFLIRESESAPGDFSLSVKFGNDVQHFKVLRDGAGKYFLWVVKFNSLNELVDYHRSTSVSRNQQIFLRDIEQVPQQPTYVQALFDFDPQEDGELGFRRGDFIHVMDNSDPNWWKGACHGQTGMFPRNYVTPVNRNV
Hck, sequence (P08631 whole entry, looked up): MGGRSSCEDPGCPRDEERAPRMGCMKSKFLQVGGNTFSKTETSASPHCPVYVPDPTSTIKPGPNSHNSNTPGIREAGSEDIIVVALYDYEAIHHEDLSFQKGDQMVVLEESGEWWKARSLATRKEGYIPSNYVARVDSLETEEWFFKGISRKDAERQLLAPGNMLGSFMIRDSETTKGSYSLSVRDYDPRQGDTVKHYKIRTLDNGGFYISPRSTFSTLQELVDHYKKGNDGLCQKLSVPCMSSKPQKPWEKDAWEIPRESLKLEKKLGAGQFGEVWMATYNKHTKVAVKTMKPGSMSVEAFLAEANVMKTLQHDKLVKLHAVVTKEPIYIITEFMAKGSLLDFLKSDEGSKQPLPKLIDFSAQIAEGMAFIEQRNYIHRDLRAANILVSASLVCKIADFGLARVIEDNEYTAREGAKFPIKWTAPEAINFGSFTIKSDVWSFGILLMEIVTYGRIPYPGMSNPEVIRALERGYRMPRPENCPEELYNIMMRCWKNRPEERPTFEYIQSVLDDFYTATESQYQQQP
Fyn, sequence (P06241 whole entry, looked up): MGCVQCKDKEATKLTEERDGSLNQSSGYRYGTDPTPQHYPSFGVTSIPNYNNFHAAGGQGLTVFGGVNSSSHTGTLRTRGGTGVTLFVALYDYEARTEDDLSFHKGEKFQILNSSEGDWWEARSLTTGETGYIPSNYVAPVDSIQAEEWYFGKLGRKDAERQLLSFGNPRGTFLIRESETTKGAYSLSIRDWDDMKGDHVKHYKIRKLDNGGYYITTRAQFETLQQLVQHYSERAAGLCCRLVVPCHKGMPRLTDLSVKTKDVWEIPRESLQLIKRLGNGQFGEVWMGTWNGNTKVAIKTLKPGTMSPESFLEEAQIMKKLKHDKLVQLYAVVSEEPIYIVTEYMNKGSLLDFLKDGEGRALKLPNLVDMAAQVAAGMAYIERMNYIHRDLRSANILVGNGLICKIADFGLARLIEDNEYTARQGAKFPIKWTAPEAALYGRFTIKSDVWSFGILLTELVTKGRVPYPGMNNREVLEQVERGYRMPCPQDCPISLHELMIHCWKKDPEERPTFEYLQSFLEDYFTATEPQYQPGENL

Row | Sequence | phosphorylation enrichment [1] | phosphorylation enrichment [2] | phosphorylation enrichment [3] | phosphorylation enrichment [4] | phosphorylation enrichment [5] | phosphorylation enrichment [6] | phosphorylation enrichment [7] | phosphorylation enrichment [8] | phosphorylation enrichment [9] | phosphorylation enrichment [10] | phosphorylation enrichment [11] | phosphorylation enrichment [12] | phosphorylation enrichment [13] | SH2 binding enrichment [14] | SH2 binding enrichment [15] | SH2 binding enrichment [16]
1 | DKPENYRRLDI [VHL_Y175_V170D] | 0.558 | 0.388 | 0.412 | 0.657 | 0.452 | 0.39 | 0.551 | 0.418 | 0.442 | 0.402 | 0.46 | 0.467 | 0.647 | 0.68 | 0.637 | 0.472
2 | DLFRLYICVKE [ARID1B_Y1091_V1092I] | 0.471 | 0.741 | 0.715 | 1.61 | 0.591 | 0.997 | 1.45 | 0.499 | 0.572 | 0.391 | 0.456 | 1 | 1.19 | 0.744 | 0.521 | 0.384
3 | DLFRLYVCVKE [ARID1B_Y1091] | 0.389 | 0.697 | 0.67 | 1.52 | 0.548 | 0.875 | 1.35 | 0.431 | 0.475 | 0.364 | 0.396 | 0.88 | 1.17 | 0.59 | 0.51 | 0.35
4 | DLGIQYKVLKP [CTNNA1_Y177_A179V] | 0.481 | 0.462 | 0.624 | 1.28 | 0.417 | 0.759 | 1.12 | 0.521 | 0.548 | 0.413 | 0.46 | 0.692 | 1.1 | 0.793 | 0.691 | 0.411
5 | DLHGIYQKLVI | 1.65 | 4.32 | 3.01 | 1.04 | 11.4 | 3.83 | 0.82 | 5.84 | 7.64 | 5.38 | 8.38 | 1.31 | 0.886 | 0.952 | 0.822 | 0.597
6 | DLRGIYQKLVI | 0.825 | 1.81 | 1.32 | 1.4 | 7.47 | 1.76 | 0.869 | 5.56 | 6.68 | 4.99 | 6.38 | 0.854 | 0.826 | 1.23 | 1.09 | 0.721
7 | DMLYQYLKQIE [RPAP3_Y569] | 3.07 | 3.36 | 1.96 | 0.887 | 6.39 | 0.602 | 0.83 | 1.43 | 5.42 | 5.97 | 1.19 | 2.4 | 1.23 | 1.15 | 0.635 | 0.537
8 | DNACQYMLTDR [MYH7_Y164_Y162C] | 0.614 | 0.6 | 0.612 | 1 | 0.523 | 0.766 | 0.959 | 1.24 | 0.567 | 0.532 | 0.571 | 0.691 | 1.02 | 0.859 | 0.866 | 0.814
9 | DPHKIYEFVNS [IRF3_Y107] | 1.77 | 18.2 | 19.2 | 7.43 | 18.1 | 4.23 | 0.729 | 8.03 | 10.3 | 10.3 | 9.53 | 1.51 | 0.984 | 0.902 | 0.766 | 0.609
10 | DQIDTYELSGA [DNM1_Y354_G359A] | 0.475 | 0.545 | 0.554 | 1.16 | 0.637 | 0.681 | 1.03 | 0.793 | 0.741 | 0.475 | 0.964 | 0.809 | 1.21 | 0.824 | 0.727 | 0.493
11 | DRLASYPEKVR [KRT13_Y118_L119P] | 0.403 | 0.323 | 0.413 | 0.57 | 0.329 | 0.41 | 0.403 | 0.331 | 0.329 | 0.34 | 0.35 | 0.413 | 0.395 | 0.845 | 0.636 | 0.511
12 | DRLTVYIDRVR [LMNA_Y45_A43T] | 0.426 | 0.553 | 0.614 | 1.26 | 0.433 | 0.749 | 1.15 | 0.324 | 0.458 | 0.312 | 0.409 | 0.779 | 1.34 | 0.953 | 0.919 | 0.636
13 | DTLASYLDKVR [KRT12_Y139_R135T] | 0.352 | 0.403 | 0.44 | 0.76 | 0.304 | 0.495 | 0.42 | 0.364 | 0.408 | 0.411 | 0.378 | 0.415 | 0.552 | 0.98 | 0.73 | 0.687
14 | DTNIAYWLHPR [POMT1_Y581] | 1.84 | 0.433 | 0.44 | 0.763 | 0.373 | 0.473 | 0.813 | 0.717 | 0.633 | 0.803 | 0.64 | 1.23 | 0.762 | 1.03 | 1.08 | 0.561
15 | DVAKEYGHLLP [HRC_Y99_S96A] | 0.436 | 0.517 | 0.512 | 0.822 | 0.403 | 0.555 | 0.781 | 0.52 | 0.547 | 0.402 | 0.422 | 0.522 | 0.723 | 0.984 | 0.604 | 0.429
16 | DVFRQYASLTG [GANAB_Y379] | 0.395 | 0.422 | 0.44 | 0.709 | 0.417 | 0.573 | 0.589 | 0.402 | 0.448 | 0.406 | 0.379 | 0.428 | 0.568 | 0.893 | 6.85 | 2.5
17 | EAESWYQTKFE [KRT75_Y342_YF] | 0.49 | 0.721 | 0.568 | 1.18 | 0.624 | 0.684 | 0.906 | 0.583 | 0.735 | 0.436 | 0.662 | 0.808 | 1.06 | 0.794 | 0.434 | 0.699

Row | Sequence | phosphorylation enrichment [1] | phosphorylation enrichment [2] | phosphorylation enrichment [3] | phosphorylation enrichment [4] | phosphorylation enrichment [5] | phosphorylation enrichment [6] | phosphorylation enrichment [7] | phosphorylation enrichment [8] | phosphorylation enrichment [9] | phosphorylation enrichment [10] | phosphorylation enrichment [11] | phosphorylation enrichment [12] | phosphorylation enrichment [13] | SH2 binding enrichment [14] | SH2 binding enrichment [15] | SH2 binding enrichment [16]
18 | EARRVYRDIIH [ALDH5A1_Y175_G176R] | 0.357 | 0.318 | 0.386 | 0.547 | 0.305 | 0.528 | 0.475 | 0.41 | 0.325 | 0.403 | 0.352 | 0.415 | 0.549 | 0.928 | 0.75 | 0.513
19 | EASGIYVKSVI [PATJ_Y396_I400V] | 0.47 | 0.543 | 0.465 | 1.1 | 0.481 | 0.716 | 0.97 | 0.462 | 0.501 | 0.366 | 0.433 | 0.741 | 0.958 | 0.783 | 0.55 | 0.481
20 | ECKLLYSQKEG [PTPN11_Y263_R265Q] | 0.532 | 0.643 | 0.759 | 1.08 | 0.607 | 0.724 | 0.986 | 0.541 | 0.682 | 0.494 | 0.489 | 0.705 | 0.865 | 0.786 | 0.667 | 0.554
21 | EEGESYVCSSD [DCX_Y125] | 0.676 | 0.814 | 0.792 | 1.41 | 0.799 | 0.924 | 1.21 | 0.603 | 0.694 | 0.58 | 0.56 | 0.945 | 1.31 | 1.08 | 0.839 | 0.793
22 | EEKKKYFDAKI [CASP5_Y103_T106A_YF] | 0.488 | 0.385 | 0.43 | 0.818 | 0.401 | 0.58 | 0.684 | 0.479 | 0.442 | 0.501 | 0.4 | 0.464 | 0.798 | 1.01 | 0.672 | 0.446
23 | EERNPYYSSAR [MCCC2_Y520_G517R] | 0.487 | 0.472 | 0.5 | 0.749 | 0.505 | 0.591 | 0.923 | 1.56 | 0.828 | 0.468 | 0.654 | 0.552 | 0.942 | 0.963 | 0.875 | 2.83
24 | EESSHYSTEKE [ADAR_Y587] | 0.597 | 0.621 | 0.493 | 1.47 | 0.531 | 0.604 | 0.658 | 0.427 | 0.589 | 0.509 | 0.633 | 0.578 | 1.14 | 0.955 | 0.646 | 0.549
25 | EFISESCGEII [EZH2_Y641_Y641S] | 0.567 | 0.544 | 0.752 | 1.19 | 0.484 | 0.783 | 1.04 | 0.568 | 0.476 | 0.419 | 0.484 | 0.592 | 1.17 | 1 | 0.716 | 0.532
26 | EFNLMYDGTKE [IRF6_Y97] | 0.498 | 0.447 | 0.462 | 1.14 | 0.479 | 0.705 | 1.03 | 0.597 | 0.595 | 0.446 | 0.536 | 0.603 | 0.993 | 0.883 | 1.21 | 0.489
27 | EFTAGYNVKFD [GPX4_Y123_A120T] | 0.41 | 0.422 | 0.474 | 0.891 | 0.495 | 0.635 | 0.9 | 0.44 | 0.435 | 0.445 | 0.465 | 0.547 | 0.762 | 0.881 | 0.605 | 0.468
28 | EICTQYEAMAS [GFAP_Y242_R239C] | 0.517 | 0.65 | 0.614 | 1.15 | 0.829 | 0.71 | 0.777 | 0.601 | 0.708 | 0.55 | 0.576 | 0.683 | 1.23 | 0.989 | 0.804 | 2.84
29 | EIIPFYGMSTF [FNDC3B_Y175_YF] | 0.461 | 0.532 | 0.667 | 0.911 | 0.897 | 0.97 | 0.879 | 0.782 | 0.844 | 0.901 | 0.687 | 0.524 | 0.955 | 0.731 | 0.575 | 3.09
30 | EIVYVYVKKRS [DNAI2_Y7] | 0.52 | 0.555 | 0.57 | 1.1 | 0.465 | 0.64 | 1.01 | 0.399 | 0.538 | 0.377 | 0.354 | 0.675 | 1.29 | 0.687 | 0.805 | 0.483
31 | EKEKKYMLPLD [DNM2_Y563] | 0.412 | 0.526 | 0.473 | 0.796 | 0.489 | 0.589 | 0.849 | 0.452 | 0.591 | 0.449 | 0.625 | 0.466 | 0.885 | 0.902 | 0.841 | 0.534
32 | EKEQNYDLTEV [ECD_Y448] | 0.655 | 0.569 | 0.675 | 1.31 | 0.694 | 0.737 | 1.06 | 0.466 | 0.666 | 0.593 | 0.544 | 0.73 | 1.31 | 0.962 | 0.802 | 0.704
33 | EKKDIYKAGEQ [CFH_Y1008_V1007I] | 0.327 | 0.353 | 0.424 | 0.696 | 0.362 | 0.5 | 0.488 | 0.431 | 0.373 | 0.362 | 0.341 | 0.364 | 0.493 | 0.826 | 0.648 | 0.365
